Data as given in publication PMC10592267.

Molecular target: poplar cellulose synthase isoform-8 (CesA8) from hybrid aspen (hybrid aspen (poplar))
Test: cryo-EM structure; purified CesA8 in 0.02% GDN, incubated with 20 mM MgCl2 and 5 mM UDP or UDP-Glc for 30 min on ice before grid preparation; non-uniform refinement with C3 symmetry

- stoichiometry N: 3
Substance: poplar cellulose synthase isoform-8 (CesA8) from hybrid aspen (enzyme)
